Assay [1] addresses acetylcholine receptor. Nature of the assay: SPR, acetylcholine receptor on CM5 chip, peptide at 10 uM. In general terms: SPR reads the build-up and loss of mass on a sensor chip optically.
Assay [2] concerns the target acetylcholine receptor. Nature of the assay: SPR, AchR on CM5 chip, peptide 10 µM.

The molecule KKWYLK [6mer-1-555] had a Binding affinity (RU) in the assay with acetylcholine receptor [1] of 128 RU.
The same measure, in the same setting: as for KRWFLK [6mer-1-582], the figure is 137 RU.
The same measure, in the same setting: as for RKVYRK [6mer-1-593], the figure is 148 RU; as for KRVICK [6mer-1-586], 136 RU; as for KRWQQK [6mer-1-568], 147 RU.
The same measure, in the same setting: as for RRSFSK [6mer-1-560], the figure is 127 RU; as for RKVYLK [6mer-1-561], 131 RU; as for KKQLLK [6mer-1-587], 148 RU.
In turn, RKRLRK [6mer-1-570] had a Binding affinity (RU) with acetylcholine receptor [1] of 122 RU.
Still for that read-out and setting: as for RKLLCK [6mer-1-571], the figure is 154 RU.
As for RKRYRK [6mer-1-552], the Binding affinity (RU) in the assay with acetylcholine receptor [1] came out at 144 RU.
The same measure, in the same setting: as for RKGQYK [6mer-1-578], the figure is 139 RU.
On the same count and under the same terms, as for KRGLYK [6mer-1-581], the figure is 139 RU.
Same read-out and setting: as for RRGVRK [6mer-1-553], the figure is 128 RU; as for RRRLTK [6mer-1-559], 139 RU; as for RKSYLR [6mer-1-574], 148 RU.
In turn, KKGFTK [6mer-1-556] registered a Binding affinity (RU) with acetylcholine receptor [1] of 145 RU.
On the same count and under the same terms, to KRQLQR [6mer-1-594] belongs 121 RU; to RRSFTR [6mer-1-563], 139 RU; to KRVLLK [6mer-1-572], 126 RU.
On the same count and under the same terms, to KRGFYK [6mer-1-597] belongs 148 RU.
For the molecule RRKAER [6mer-1-1132], the Binding affinity (RU) with acetylcholine receptor [2] stood at 31 RU.
Same read-out and setting: as for KKPNIK [6mer-1-1133], the figure is 24 RU.
Molecule KKRVSR [6mer-1-567] registered a Binding affinity (RU) with acetylcholine receptor [1] of 136 RU.
Still for that read-out and setting: as for KRQVQK [6mer-1-557], the figure is 128 RU; as for KKSLCK [6mer-1-595], 121 RU; as for RKQVSK [6mer-1-584], 127 RU.
Molecule KKSFCR [6mer-1-566] showed a Binding affinity (RU) in the assay with acetylcholine receptor [1] of 148 RU.
Same read-out and setting: as for RRLIQR [6mer-1-558], the figure is 139 RU; as for RRLVRK [6mer-1-588], 153 RU.
Same read-out and setting: as for RKSRQK [6mer-1-585], the figure is 144 RU.
On the same count and under the same terms, as for KRSYQR [6mer-1-562], the figure is 148 RU.
RKRQRR [6mer-1-576] came in with a Binding affinity (RU) with acetylcholine receptor [1] of 153 RU.
The same measure, in the same setting: to KKSLQK [6mer-1-580] belongs 121 RU; to RKGVLR [6mer-1-596], 148 RU; to KRSVRK [6mer-1-579], 148 RU.
As to RKWLSK [6mer-1-598], in the assay with acetylcholine receptor [1], the Binding affinity (RU) amounted to 142 RU.
The same measure, in the same setting: as for KRVLLR [6mer-1-573], the figure is 126 RU; as for KKLQQK [6mer-1-589], 139 RU.
Same read-out and setting: as for RKGVTK [6mer-1-590], the figure is 142 RU; as for KRGYCR [6mer-1-600], 139 RU.
On the same count and under the same terms, to KRSIRR [6mer-1-565] belongs 151 RU; to KKQYQR [6mer-1-577], 128 RU; to KRSVTR [6mer-1-554], 131 RU.
As for RRWLSK [6mer-1-592], the Binding affinity (RU) in the assay with acetylcholine receptor [1] was found to be 135 RU.
Same read-out and setting: as for RRVITK [6mer-1-569], the figure is 148 RU.
On the same count and under the same terms, as for KRWVRR [6mer-1-575], the figure is 148 RU.
On the same count and under the same terms, as for KKVLYK [6mer-1-583], the figure is 139 RU; as for KKLYQR [6mer-1-599], 124 RU.
Turning to KRSITK [6mer-1-564], the Binding affinity (RU) in the assay with acetylcholine receptor [1] amounted to 139 RU.
Still for that read-out and setting: to KKRLYR [6mer-1-591] belongs 147 RU.

Values taken from patent US20250011363A1, “OPTIMIZED SHORTENED PEPTIDE THAT BINDS TO ACETYLCHOLINE RECEPTOR, AND USE THEREOF” (SKINMED CO., LTD., priority 2021, published 2025).
